According to PMC9900698, “Phosphorylation Regulation of a Histone-like HU Protein from Deinococcus radiodurans”:
Substitutions are numbered along the chain they refer to.

T1: DrHU T37A (Deinococcus radiodurans R1 (ATCC13939), UniProt Q9RZ89 1-122, T37A)
T1 sequence: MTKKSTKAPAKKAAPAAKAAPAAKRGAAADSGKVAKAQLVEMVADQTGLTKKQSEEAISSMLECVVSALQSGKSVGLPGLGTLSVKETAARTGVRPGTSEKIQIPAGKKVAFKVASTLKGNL

T2: DrHU T37E (Deinococcus radiodurans R1 (ATCC13939), UniProt Q9RZ89 1-122, T37E)
T2 sequence: T1 sequence with A37E

B1: Duplex DNA (24bp) (dsDNA)
DNA 1: TCAATTATGTCAATGACATAAAAG
DNA 2: CTTTTATGTCATTGACATAATTGA
B2: Duplex DNA (36bp) (dsDNA)
DNA 1: GCAGAGTCAATTATGTCAATGACATAAAAGGCTCAG
DNA 2: CTGAGCCTTTTATGTCATTGACATAATTGACTCTGC
B3: Duplex DNA (48bp) (dsDNA)
DNA 1: TAACAAGCAGAGTCAATTATGTCAATGACATAAAAGGCTCAGGCCTTC
DNA 2: GAAGGCCTGAGCCTTTTATGTCATTGACATAATTGACTCTGCTTGTTA

biological target: T1, DrHU T37A; assay: EMSA; 10 mM Mg2+; EMSA: 50 mM NaCl, 20 mM Tris-HCl pH 8.0, 0.1 mg/ml BSA, 3 mM DTT, 0.1 mM EDTA, 10% glycerol, 10 mM MgCl2, 50 nM DNA, 0-3200 nM DrHU, room temperature 20 min; 22% native PAGE in 1x TB; settings: protein: recombinant; tags: N-terminal His-MBP (pET28a-HMT), removed by TEV; chain copies: 2; label: 5'-FAM; blunt

Row | Binder | binding result
1 | B1 | no binding
2 | B2 | no binding
3 | B3 | no binding

biological target: T2, DrHU T37E; assay: as above; settings: protein: recombinant; tags: N-terminal His-MBP (pET28a-HMT), removed by TEV; chain copies: 2; label: 5'-FAM; blunt

Row | Binder | Kd
4 | B1 | 1180 ± 95.9 nM
5 | B2 | 457 ± 62.9 nM
6 | B3 | 389 ± 56 nM
